According to PMC6996132 (Cell Reports, 2020):

Target: the molecule itself
Experiment: amyloid aggregation

B1: His-SUMO-hnRNPDL isoform 2 D259N (natural protein, human)
chain: MEDMNEYSNIEEFAEGSKINASKNQQDDGKMFIGGLSWDTSKKDLTEYLSRFGEVVDCTIKTDPVTGRSRGFGFVLFKDAASVDKVLELKEHKLDGKLIDPKRAKALKGKEPPKKVFVGGLSPDTSEEQIKEYFGAFGEIENIELPMDTKTNERRGFCFITYTDEEPVKKLLESRYHQIGSGKCEIKVAQPKEVYRQQQQQQKGGRGAAAGGRGGTRGRGRGQGQNWNQGFNNYYDQGYGNYNSAYGGDQNYSGYGGYNYTGYNYGNYGYGQGYADYSGQQSTYGKASRGGGNHQNNYQPY
B1: binds.

B2: His-SUMO-hnRNPDL isoform 2 D259H (natural protein, human)
chain: MEDMNEYSNIEEFAEGSKINASKNQQDDGKMFIGGLSWDTSKKDLTEYLSRFGEVVDCTIKTDPVTGRSRGFGFVLFKDAASVDKVLELKEHKLDGKLIDPKRAKALKGKEPPKKVFVGGLSPDTSEEQIKEYFGAFGEIENIELPMDTKTNERRGFCFITYTDEEPVKKLLESRYHQIGSGKCEIKVAQPKEVYRQQQQQQKGGRGAAAGGRGGTRGRGRGQGQNWNQGFNNYYDQGYGNYNSAYGGDQNYSGYGGYHYTGYNYGNYGYGQGYADYSGQQSTYGKASRGGGNHQNNYQPY
B2: binds.
